The subject of one assay is L363 cells. Nature of the assay: JNG assay, co-culture with L363 cells. The class given is cell-based. The conditions noted are these: co-culture with L363. Put shortly: (§1)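 Jurkat-NFAT-GFP (JNG) cells stably expressing SAR constructs via lentiviral transduction and puromycin/blasticidin selection were cocultured with target cells at E:T ~1:2 for ~4–18 h. NFAT-driven GFP was measured by FACS versus parental JNG cells; scores +/- to 5+ denote ~5–50% GFP-positive cells.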

The test system of another assay is RAJI cells. Nature of the assay: JNG assay, co-culture with RAJI cells. The class given is cell-based. To be noted: JNG cells expressing construct, co-culture with Raji. The gist of the method: as §1

Experimental findings from patent publication US20230212319A1, “NOVEL ANTIGEN BINDING DOMAINS AND SYNTHETIC ANTIGEN RECEPTORS INCORPORATING THE SAME” (University of Southern California, priority 2020, published 2023) are described below.

B1: 22152 (protein)
chain: MALPVTALLLPLALLLHAARPEVQLLESGGGLVQPGGSLRLSCAASGFTFSSYAMSWVRQAPGKGLEWVSSISGSGDYIYYADSVKGRFTISRDISKNTLYLQMNSLRAEDTAVYYCAKEGTGANSSLADYRGQGTLVTVSSGTGGGGSGGGGSGGGGSEFSYVLTQPPSVSVAPGQTARITCGGNNIGGKSVHWYQQPPGQAPVVVVYDDSDRPSGIPERFSGSNSGNTATLTISRVEAGDEAVYYCQVWDSSSDHVVFGGGTKLTVLLEDLKNVFPPEVAVFEPSEAEISHTQKATLVCLATGFYPDHVELSWWVNGKEVHSGVCTDPQPLKEQPALNDSRYCLSSRLRVSATFWQNPRNHFRCQVQFYGLSENDEWTQDRAKPVTQIVSAEAWGRADCGFTSESYQQGVLSATILYEILLGKATLYAVLVSALVLMAMVKRKDSRGRAKRSGSGATNFSLLKQAGDVEENPGPTSMDWIWRILFLVGAATGAHSFEQLQLQESGPGLVKPSETLSLTCTVSGGSISSSSYFWGWIRQPPGKGLEWIGSIYYSGITYYNPSLKSRVTISVDTSKNQFSLKLSSVTAADTAVYYCARHDGAVAGLFDYWGQGTLVTVSSATRIQNPDPAVYQLRDSKSSDKSVCLFTDFDSQTNVSQSKDSDVYITDKCVLDMRSMDFKSNSAVAWSNKSDFACANAFNNSIIPEDTFFPSPESSCDVKLVEKSFETDTNLNFQNLSVIGFRILLLKVAGFNLLMTLRLWSSRAKRSGSGVKQTLNFDLLKLAGDVESNPGPSRGHMTEYKPTVRLATRDDVPRAVRTLAAAFADYPATRHTVDPDRHIERVTELQELFLTRVGLDIGKVWVADDGAAVAVWTTPESVEAGAVFAEIGPRMAELSGSRLAAQQQMEGLLAPHRPKEPAWFLATVGVSPDHQGKGLGSAVVLPGVEAAERAGVPAFLETSAPRNLPFYERLGFTVTADVEVPEGPRTWCMTRKPGA
Consider B1, for which the “NFAT-GFP ASSAY: L363” value with L363 cells is 2+ (refer to approximately 5%, 10%, 20%, 30%, 40% and 50% GFP positive cells).

B2: 22025 (protein)
chain: MALPVTALLLPLALLLHAARPQLQLQESGPGLVKPSETLSLTCTVSGDSISSGDYYWGWIRQPPGKGLEWIGHIYYSGVTYYNPSLKSRVTISVDTSRNQFSLKLSSVTAADTAVYYCTREDSSNWRSRGQGTLVTVSSLEDKTHTCPPCPAGRADCGFTSESYQQGVLSATILYEILLGKATLYAVLVSALVLMAMVKRKDSRGRAKRSGSGATNFSLLKQAGDVEENPGPTSMDWIWRILFLVGAATGAHSFEVQLLESGGGLIQPGGSLRLSCAASGFTFSSHAMTWVRQAPGKGLEWVSAISGSGDYTHYADSVKGRFTISRDNSKNTVYLQMNSLRAEDSAVYYCAKDEDGGSLLGHRGQGTLVTVSSTRDKTHTCPPCPAIPEDTFFPSPESSCDVKLVEKSFETDTNLNFQNLSVIGFRILLLKVAGFNLLMTLRLWSSRAKRSGSGVKQTLNFDLLKLAGDVESNPGPSRGHMTEYKPTVRLATRDDVPRAVRTLAAAFADYPATRHTVDPDRHIERVTELQELFLTRVGLDIGKVWVADDGAAVAVWTTPESVEAGAVFAEIGPRMAELSGSRLAAQQQMEGLLAPHRPKEPAWFLATVGVSPDHQGKGLGSAVVLPGVEAAERAGVPAFLETSAPRNLPFYERLGFTVTADVEVPEGPRTWCMTRKPGA
For the molecule B2, the “NFAT-GFP ASSAY: L363” value in the assay with L363 cells is “+ (refer to approximately 5%, 10%, 20%, 30%, 40% and 50% GFP positive cells)”. Also, in the assay on RAJI cells, the “NFAT-GFP ASSAY: Raji” value is “+/- (refer to approximately 5%, 10%, 20%, 30%, 40% and 50% GFP positive cells)”.

B3: 22029 (protein)
chain: MALPVTALLLPLALLLHAARPQLQLQESGPGLVKPSETLSLTCTVSGDSISSGDYYWGWIRQPPGKGLEWIGHIYYSGVTYYNPSLKSRVTISVDTSRNQFSLKLSSVTAADTAVYYCTREDSSNWRSRGQGTLVTVSSLEDKTHTCPPCPAPIKTDVITMDPKDNCSKDANDTLLLQLTNTSAYYMYLLLLLKSVVYFAIITCCLLRRTAFCCNGEKSRAKRSGSGATNFSLLKQAGDVEENPGPTSMDWIWRILFLVGAATGAHSFEVQLVESGGGVVQPGRSLRLSCAASGFSFSGYGMHWVRQAPGKGLEWVAYISYDGSNKYYADSVKGRFTISRDNSKNTLYLQMNSLRAEDTAVYYCAKDPAWGLRLGESSSYDFDIWGQGTMVTVSSTRIQNPDPAVYQLRDSKSSDKSVCLFTDFDSQTNVSQSKDSDVYITDKCVLDMRSMDFKSNSAVAWSNKSDFACANAFNNSIIPEDTFFPSPESSCDVKLVEKSFETDTNLNFQNLSVIGFRILLLKVAGFNLLMTLRLWSSRAKRSGSGVKQTLNFDLLKLAGDVESNPGPSRGHMTEYKPTVRLATRDDVPRAVRTLAAAFADYPATRHTVDPDRHIERVTELQELFLTRVGLDIGKVWVADDGAAVAVWTTPESVEAGAVFAEIGPRMAELSGSRLAAQQQMEGLLAPHRPKEPAWFLATVGVSPDHQGKGLGSAVVLPGVEAAERAGVPAFLETSAPRNLPFYERLGFTVTADVEVPEGPRTWCMTRKPGA
B3: the “NFAT-GFP ASSAY: L363” value in the assay with L363 cells is “+ (refer to approximately 5%, 10%, 20%, 30%, 40% and 50% GFP positive cells)”. In the assay with RAJI cells, the “NFAT-GFP ASSAY: Raji” value was “+/- (refer to approximately 5%, 10%, 20%, 30%, 40% and 50% GFP positive cells)”.

B4: 22153 (protein)
chain: MALPVTALLLPLALLLHAARPACEVQLLESGGGLIQPGGSLRLSCAASGFTFSSHAMTWVRQAPGKGLEWVSAISGSGDYTHYADSVKGRFTISRDNSKNTVYLQMNSLRAEDSAVYYCAKDEDGGSLLGHRGQGTLVTVSSGTGGGGSGGGGSGGGGSEFSYVLTQPPSVSVAPGQTARITCGGNNIGGKSVHWYQQPPGQAPVVVVYDDSDRPSGIPERFSGSNSGNTATLTISRVEAGDEAVYYCQVWDSSSDHVVFGGGTKLTVLLEGQPKANPTVTLFPPSSEELQANKATLVCLISDFYPGAVTVAWKADGSPVKAGVETTKPSKQSNNKYAASSYLSLTPEQWKSHRSYSCQVTHEGSTVEKTVAPTECSPIKTDVITMDPKDNCSKDANDTLLLQLTNTSAYYMYLLLLLKSVVYFAIITCCLLRRTAFCCNGEKSRAKRSGSGATNFSLLKQAGDVEENPGPTSATMDWIWRILFLVGAATGAHSGPQVQLQESGGGLAQAGGSLRLSCAASGRTFSMGWFRQAPGKEREFVAAITYSGGSPYYASSVRGRFTISRDNAKNTVYLQMNSLKPEDTAVYYCAANPTYGSDWNAENWGQGTQVTVSSGSGGGGSGGGGSGGGGSFEQLQLQESGPGLVKPSETLSLTCTVSGGSISSSSYFWGWIRQPPGKGLEWIGSIYYSGITYYNPSLKSRVTISVDTSKNQFSLKLSSVTAADTAVYYCARHDGAVAGLFDYWGQGTLVTVSSATRASTKGPSVFPLAPSSKSTSGGTAALGCLVKDYFPEPVTVSWNSGALTSGVHTFPAVLQSSGLYSLSSVVTVPSSSLGTQTYICNVNHKPSNTKVDKRVEPKSCEVKTDSTDHVKPKETENTKQPSKSCHKPKAIVHTEKVNMMSLTVLGLRMLFAKTVAVNFLLTAKLFFLRAKRSGSGVKQTLNFDLLKLAGDVESNPGPSRGHMTEYKPTVRLATRDDVPRAVRTLAAAFADYPATRHTVDPDRHIERVTELQELFLTRVGLDIGKVWVADDGAAVAVWTTPESVEAGAVFAEIGPRMAELSGSRLAAQQQMEGLLAPHRPKEPAWFLATVGVSPDHQGKGLGSAVVLPGVEAAERAGVPAFLETSAPRNLPFYERLGFTVTADVEVPEGPRTWCMTRKPGA
On to B4, for which the “NFAT-GFP ASSAY: L363” value with L363 cells is 2+ (refer to approximately 5%, 10%, 20%, 30%, 40% and 50% GFP positive cells).

B5: 22083 (protein)
chain: MALPVTALLLPLALLLHAARPQLQLQESGPGLVKPSETLSLTCTVSGDSISSGDYYWGWIRQPPGKGLEWIGHIYYSGVTYYNPSLKSRVTISVDTSRNQFSLKLSSVTAADTAVYYCTREDSSNWRSRGQGTLVTVSSLESGGGGSFEEVQLLESGGGLVQPGGSLRLSCAASGFTFSSYAMSWVRQAPGKGLEWVSSISGSGDYIYYADSVKGRFTISRDISKNTLYLQMNSLRAEDTAVYYCAKEGTGANSSLADYRGQGTLVTVSSTRDKTHTCPPCPAIPEDTFFPSPESSCDVKLVEKSFETDTNLNFQNLSVIGFRILLLKVAGFNLLMTLRLWSS
In the case of B5, in the assay on L363 cells, the “NFAT-GFP ASSAY: L363” value was “+/- (refer to approximately 5%, 10%, 20%, 30%, 40% and 50% GFP positive cells)”. In addition, the “NFAT-GFP ASSAY: Raji” value in the assay on RAJI cells is “+/- (refer to approximately 5%, 10%, 20%, 30%, 40% and 50% GFP positive cells)”.
